Values joined by “and” are separate entries in the source; they are usually repeats but may differ in a detail not shown here. Equal entries are not always repeated. Where two headings read alike, the source gives them in different places.

Two substances from PMC4001850 can be followed below.

The target of experiment [1] is Aβ_(1-40) peptide. Briefly: cross-linking.
For experiment [2], the target named is Aβ_(1-40) peptide. As to the kind of experiment: cross-linking. This is another data set of the same source.
Experiment [3] has as its target eAβPP_(19-624), His-Patch thioredoxin fusion of the entire ectodomain of AβPP695 (82-kDa) (human) (UniProt P05067). As to the kind of experiment: SAXS.
The next experiment concerns the target Aβ_(1-42) peptide. As to the kind of experiment: cross-linking.

By stoichiometry N is commonly meant a count of units in the complex or per binding partner. As to Aβ_(1-40) peptide, the stoichiometry N with Aβ_(1-40) peptide [1] was 12 and 18; in the experiment with Aβ_(1-40) peptide [2], 2. The stoichiometry N (Aβ molecules per eAβPP dimer) in experiment [3] came out at 8.

As to Aβ_(1-42) peptide, the stoichiometry N with Aβ_(1-42) peptide stood at 3. The stoichiometry N (Aβ molecules per eAβPP dimer) in experiment [3] came out at 6.
